pKd: −log10 of the molar value.
Molecular target: recombinant human sortilin (human) (UniProt Q99523)
Test: SPR (BIAcore), sortilin immobilized on CM5 chip, ApoB 10, 20, 50 nM

Sequence of recombinant human sortilin (human) (Q99523 78-755 limits assumed, form in doubt): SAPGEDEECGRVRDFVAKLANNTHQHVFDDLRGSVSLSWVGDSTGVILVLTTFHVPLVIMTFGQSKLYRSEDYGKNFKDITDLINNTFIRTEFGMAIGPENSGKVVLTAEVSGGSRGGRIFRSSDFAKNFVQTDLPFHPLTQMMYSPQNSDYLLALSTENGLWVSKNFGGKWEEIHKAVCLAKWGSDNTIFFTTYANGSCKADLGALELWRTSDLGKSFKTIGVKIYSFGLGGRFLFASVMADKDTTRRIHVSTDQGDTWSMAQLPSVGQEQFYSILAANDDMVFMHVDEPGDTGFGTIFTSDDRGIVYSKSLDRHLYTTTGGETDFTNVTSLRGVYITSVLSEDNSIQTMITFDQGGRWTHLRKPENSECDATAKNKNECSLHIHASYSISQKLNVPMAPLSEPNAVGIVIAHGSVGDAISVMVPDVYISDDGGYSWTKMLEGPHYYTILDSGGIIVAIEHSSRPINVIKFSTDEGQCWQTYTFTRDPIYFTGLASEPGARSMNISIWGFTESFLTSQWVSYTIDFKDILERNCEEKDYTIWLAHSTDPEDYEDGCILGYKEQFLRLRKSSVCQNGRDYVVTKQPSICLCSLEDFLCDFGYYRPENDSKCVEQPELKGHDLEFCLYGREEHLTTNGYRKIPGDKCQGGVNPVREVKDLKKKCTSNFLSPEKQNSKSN

A pKd of 9.40 was found for ApoB (ligand) in this work.
